Source: PMC10281000 (Chembiochem : a European journal of chemical biology, 2021)

Columns and labels:
Bpro0530 = conditions: 100 mM Tris-SO4, pH 8.5, 30 °C; defluorination
ST2570 = ST2570 (Sulfurisphaera tokodaii, UniProt Q96XE7); conditions: 100 mM Tris-SO4, pH 8.5, 30 °C; defluorination
Rha0230 = Rha0230 (Rhodococcus jostii, UniProt Q0SK70); conditions: 100 mM Tris-SO4, pH 8.5, 30 °C; defluorination
O=C(O)CCl = experiment: purified protein; conditions: pH 8.5; 30.0 °C
crystal structure = molecular target: the molecule itself; experiment: crystal structure

Molecule: O=C(O)CF [fluoroacetate]
- Km (Bpro0530): 20.3 ± 0.3 mM
- Km (ST2570): 2.4 ± 0.7 mM
- Km (Rha0230): 18 ± 3 mM

Molecule: Rha0230 (Rhodococcus jostii RHA1)
- Km (O=C(O)CCl): 18 ± 2 mM
- kcat/Km (O=C(O)CCl): 37 ± 6 M⁻¹ s⁻¹

Molecule: Rha0230 (Rhodococcus jostii RHA1; Y61F)
- Km (O=C(O)CCl): 14 ± 2 mM
- kcat/Km (O=C(O)CCl): 73 ± 13 M⁻¹ s⁻¹

Molecule: ST2570 (Sulfurisphaera tokodaii str. 7)
- Km (O=C(O)CCl): 0.00353 ± 3e-05 mM
- kcat/Km (O=C(O)CCl): 73000 ± 1100 M⁻¹ s⁻¹

B1: PA0810, L-2-haloacid dehalogenase from Pseudomonas aeruginosa PAO1 (enzyme)
chain: MRAILFDVFGTLVDWRSSLIEQFQALERELGGTLPCVELTDRWRQQYKPAMDRVRNGQAPWQHLDQLHRQSLEALAGEFGLALDEALLQRITGFWHRLRPWPDTLAGMHALKADYWLAALSNGNTALMLDVARHAGLPWDMLLCADLFGHYKPDPQVYLGACRLLDLPPQEVMLCAAHNYDLKAARALGLKTAFIARPLEYGPGQSQDLAAEQDWDLIASDLLDLHRQLAASA
- binding result (crystal structure): binds
